“Also recorded” adds a separate entry of the source.
B1: S11: S. lycopersicum subtilisin propeptide-like inhibitor, SEQ ID No. 33, recombinant from E. coli (protein)
chain: MMKKDQILSSILLFFFLFTAFITTMADSQASSQPSNESKVHIVYTEQPKDQEPEEYHIKTLTSVLGSEEAAKEALLYSYKHAASGFSAKLTAEQVSELSKLPGVLQVVPSQTVQLHTGRV
modifications: Protease inhibitor
B2: SBT3: other serine protease (Cedzich A et al. 2009) (protein, UniProt O82777 113-761, looked up)
Subtilisin-like protease SBT3: TTHTSDFLKLNPSSGLWPASGLGQDVIVAVLDSGIWPESASFQDDGMPEIPKRWKGICKPGTQFNASMCNRKLIGANYFNKGILANDPTVNITMNSARDTDGHGTHCASITAGNFAKGVSHFGYAPGTARGVAPRARLAVYKFSFNEGTFTSDLIAAMDQAVADGVDMISISYGYRFIPLYEDAISIASFGAMMKGVLVSASAGNRGPGIGSLNNGSPWILCVASGHTDRTFAGTLTLGNGLKIRGWSLFPARAFVRDSPVIYNKTLSDCSSEELLSQVENPENTIVICDDNGDFSDQMRIITRARLKAAIFISEDPGVFRSATFPNPGVVVNKKEGKQVINYVKNSVTPTATITFQETYLDTKPAPVVAASSARGPSRSYLGISKPDILAPGVLILAAYPPNVFATSIGTNILLSTDYILESGTSMAAPHAAGIAAMLKAAHPEWSPSAIRSAMMTTADPLDNTRKPIKDSDNNKAATPLDMGAGHVDPNRALDPGLVYDATPQDYVNLLCSLNFTEEQFKTIARSSASHNCSNPSADLNYPSFIALYSIEGNFTLLEQKFKRTVTNVGKGAATYKAKLKAPKNSTISVSPQILVFKNKNEKQSYTLTIRYIGDEGQSRNVGSITWVEQNGNHSVRSPIVTSPIIEVW
B3: SBT1: Nicotiana benthamiana subtilisin-like serine protease comprising SEQ ID No. 2 (protein, listed as Nicotiana benthamiana)
chain: MKGIISLFFCFSLFIVSFILREADSASQAQNNGIYIVYMGAAASSNGGTRHDQARLISSLIRRNKHAVVHSYNNGFSGFAARLSESEAKSMAQRPGVISVFPDPVLQLHTTHSWDFLKYQTDEKINSSPSSGSDSSLIGADTIIGILDTGIWPESESFNDKDMGPIPSRWNGTCMDGQDFGSSKCNKKIVGARFYEESDDSGTKIAGSARDENGHGTHVASTAAGSPVAGASYYGLAAGTATGGSPGSRISMYRVCTTFGCRGSAIMKAFDDAIADGVDVLSLSLGSSPGLEPDFPSNPIAIGAFHAVEKGITVVCSAGNSGPGPKTVVNTAPWILTVAATTIDRDFETDIVLGGNKLIKGGGINFGNMTKSSVYPLIHGNSTKSNDNVSEADARSCVPGSLDENKVKGKIVLCENLDDGEYFPSDKLDEVKSRGGVGFILIDDDERTVAPKFNSFSAGVVSKKDGNEILAYINSTRNPVASILPTVSITKYKPAPVVAYFSSRGPAYNTPNLLKPDITAPGVAILAAWPGNDTSEALPGQKPPIFNLLSGTSMSCPHVSGIAATVKAVNPTWSPSAVKSAIMTTAIQTNNLKAPITTVSGSKATPYDIGAGEASTSGPLKPGLVYETDVADYLQFLCSVGFNISQIKLISITVPEDFSCPKNSTSELVSNMNYPSIAISSLKENEPKKVTRTVTNTGEEASVYTTVIEAPKGLEVQVIPTKLEFTNKSKKLSYDVSFKASSTSKEDLFGSITWTNGKYKVRSPFVVSSN
B4: SBT2: Nicotiana benthamiana subtilisin-like serine protease comprising SEQ ID No. 14 (protein, listed as Nicotiana benthamiana)
chain: MANHITLCIWLLFFFISIFSLAKSETYIIHMDLSAMPKAFSSHHNWYLTTLSSVSDSSTNHKDFLSSKLVYAYTNAIHGFSASLSPSELEAIKYSPGYVSSIKDISVKIDTTHTSQFLGLNSKSGVWPTSDYGKDIIIGLVDTGIWPESKSYSDDGISEVPSRWKGECESGTEFNSSLCNKKLIGARYFNKGLLANNPNLNISMNSSRDTDGHGTHTSSTAAGSYVEGASYFGYATGTAIGIAPKAHVAMYKALWEEGVYLSDVLAAIDQAITDGVDVLSLSLGIDAIPLHEDPVAIAAFAALEKGIFVSTSAGNEGPYYETLHNGTPWVLTVAAGTVDREFIGTLTLGNGVSVPGLSLYPGNSSSSESSLVYVECQDDKELQKNAHKFVVCLDKNDSVGEHVYNVRNSKVAGAVFITNTTDLEFYLQSEFPAVFLNLQEGDKVLEYIKSNSAPKGKLEFQVTHIGAKPAPKVATYSSRGPSPSCPSILKPDLMAPGALILASWPQQSPVTDVTSGKLFSNFNIISGTSMSCPHASGVAALLKAAHPEWSPAAIRSAMMTTSTALDNTQSPIRDIGNKNAAATPLAMGAGHIDPNKALDPGLIYDATPQDYVNLLCALNFTSKQIKTITRSSSYTCSNPSLDLNYPSFIGFFNGNSSESDPKRIQEFKRTVTNLQDGTSIYTANFTPMGKFKVSVVPEKLVFKEKYEKLSYKLRIEGPIVMDDNVVYGSLSWVETGGNYVVRSPIVATSIKVDPLTGHN

Key:
HIV-1 UG37 gp140 = test: ELISA antigen binding of 2G12 (I19R 2G12 precomplexed with anti-Fc); details: 2G12 (I19R variant) cleaved by apoplastic proteases
Method: A slightly modified ELISA procedure was used for the analysis of 2G12 containing an I19R mutation in the heavy chain (I19R 2G12). Wells were coated with 500 ng HIV-1 UG37 gp140 in PBS. […] (Doores K J et al. J Virol 84 (2010):10690-10699) prior to appropriate dilution and addition to the wells. Detection of antigen-bound mAb molecules was performed with 0.1 μg/mL goat anti-human kappa chain peroxidase conjugate (SIGMA-ALDRICH, A7164).

monoclonal antibody 2F5 = test: In vitro degradation assay with purified proteases, substrate 2F5; assay type: biochemical; details: purified protease 10-100 μg/mL, pH 5.5
Chain of monoclonal antibody 2F5 (as listed by the source): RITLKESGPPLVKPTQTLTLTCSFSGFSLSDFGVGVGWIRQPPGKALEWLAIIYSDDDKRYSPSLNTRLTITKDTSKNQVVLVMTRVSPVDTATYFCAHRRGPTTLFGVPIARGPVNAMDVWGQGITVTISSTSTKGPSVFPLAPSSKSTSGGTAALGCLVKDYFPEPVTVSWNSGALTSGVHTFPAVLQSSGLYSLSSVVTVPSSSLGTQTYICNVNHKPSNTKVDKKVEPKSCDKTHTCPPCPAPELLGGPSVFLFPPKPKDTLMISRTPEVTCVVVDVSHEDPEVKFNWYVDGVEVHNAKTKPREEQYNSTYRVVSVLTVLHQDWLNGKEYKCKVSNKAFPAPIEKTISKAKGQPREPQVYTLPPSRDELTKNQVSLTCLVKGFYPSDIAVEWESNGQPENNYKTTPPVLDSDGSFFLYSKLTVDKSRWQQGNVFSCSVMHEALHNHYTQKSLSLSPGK
Method: (§1) Leaves of Nicotiana benthamiana […] (Strasser R et al. Plant Biotechnol J 6 (2008):392-402) expressing a subtilisin-like serine protease construct were submerged in extraction buffer (50 mM sodium phosphate/200 mM KCl, pH 7.0) prior to vacuum exposure in a desiccator. Exogenous buffer was removed prior to centrifugation of the leaves for 15 min at 2000 g and 4° C. The recovered solution was then supplemented with 20 mM imidazole and loaded on a 1 mL column of Chelating Sepharose (GE […]) charged with Ni^2+ ions. After washing with the same buffer, the recombinant subtilisin-like serine protease was eluted with 250 mM imidazole in extraction buffer. Protein-containing eluate fractions were pooled, dialysed twice against 2 liters of extraction buffer and then concentrated by ultrafiltration using Microsep Advance centrifugal devices (10K MWCO; PALL CORPORATION).
(§2) After incubation for up to 16 h, reactions were stopped by addition of SDS-PAGE sample buffer.
(§3) For isolation of mAb degradation products, antibodies ([…]) were digested with apoplastic fluid or purified subtilisin-like serine proteases in 500 μL 100 mM sodium acetate (pH 5.5) to completion. After addition of 10 μL settled rProtein A Sepharose 4 Fast Flow beads, the samples were incubated for 2 h at 4° C. under constant agitation. The beads were then collected by centrifugation, washed four times with 500 μL PBS prior to elution of the bound antibody fragments with 100 μL 100 mM glycine (pH 3.0). The eluate was immediately neutralized with 10 μL 1 M Tris/HCl (pH 8.0). This elution/neutralization cycle was repeated four times. […]
(§4) N-terminal sequence analysis of bands blotted on polyvinylidene difluoride membranes (BIO-RAD) was performed by Edman degradation (Niemer M et al. Biotechnol J 9 (2014):493-500). […] Eluted polypeptides were analysed online on a maxis 4G ETD Q-TOF mass spectrometer (BRUKER, Billerica, USA) equipped with an electrospray ionization source and operated in the positive ion mode (m/z range: 400-3800). […]

SBT1 (SEQ ID No. 2) = test: Kinetic analysis of protease-inhibitor interactions, SBT1; assay type: biochemical, Nicotiana benthamiana; details: recombinant inhibitor from E. coli; substrate Abz-VILDAVRA-Y(NO2)
Method: (§5) These assays were performed as described (Hohl M et al., 2017, J. Biol. Chem. 292, 6389-6401). A fluorogenic peptide substrate, Abz-[…]-Y(NO2) (SEQ ID NO: 37), was used for measuring the enzymatic activity of the subtilisin-like serine proteases tested. Recombinant inhibitors (prepared as described in Hohl M et al., 2017, J. Biol. Chem. 292, 6389-6401) were added in serial dilutions. Substrate cleavage was monitored in an Infinite M200 Pro microplate reader as increase in relative fluorescence (λex=320 nm; λem=420 nm). Inhibition constants (Ki) were calculated using the Morrison equation.

SBT2 (SEQ ID No. 14) = test: Kinetic analysis of protease-inhibitor interactions, SBT2; assay type: biochemical, Nicotiana benthamiana; details: recombinant inhibitor from E. coli; substrate Abz-VILDAVRA-Y(NO2)
Chain of SBT2 (SEQ ID No. 14) (as listed by the source): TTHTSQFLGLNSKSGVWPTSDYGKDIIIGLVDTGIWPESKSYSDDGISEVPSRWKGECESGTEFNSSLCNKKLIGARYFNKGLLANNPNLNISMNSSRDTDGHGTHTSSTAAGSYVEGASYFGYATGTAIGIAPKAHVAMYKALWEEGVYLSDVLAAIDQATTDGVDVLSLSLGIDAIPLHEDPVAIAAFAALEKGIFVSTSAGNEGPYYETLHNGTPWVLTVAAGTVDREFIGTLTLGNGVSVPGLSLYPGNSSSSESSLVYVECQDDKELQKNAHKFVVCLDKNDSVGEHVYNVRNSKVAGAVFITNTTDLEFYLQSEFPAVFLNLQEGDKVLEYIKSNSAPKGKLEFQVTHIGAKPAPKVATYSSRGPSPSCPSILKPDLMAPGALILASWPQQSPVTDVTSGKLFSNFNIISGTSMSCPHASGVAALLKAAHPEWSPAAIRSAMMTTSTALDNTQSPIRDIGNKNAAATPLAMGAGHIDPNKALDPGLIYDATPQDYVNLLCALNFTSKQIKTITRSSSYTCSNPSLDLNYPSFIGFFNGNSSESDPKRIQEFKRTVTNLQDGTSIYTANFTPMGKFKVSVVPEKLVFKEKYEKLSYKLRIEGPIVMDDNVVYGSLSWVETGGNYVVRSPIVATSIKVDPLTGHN
Method: as §5

PG9 = test: In vitro degradation assay with purified proteases, substrate PG9; assay type: biochemical; details: for cleavage / degradation of PG9 by purified protease: purified protease 10-100 μg/mL, pH 5.5
Chain of PG9 (as listed by the source): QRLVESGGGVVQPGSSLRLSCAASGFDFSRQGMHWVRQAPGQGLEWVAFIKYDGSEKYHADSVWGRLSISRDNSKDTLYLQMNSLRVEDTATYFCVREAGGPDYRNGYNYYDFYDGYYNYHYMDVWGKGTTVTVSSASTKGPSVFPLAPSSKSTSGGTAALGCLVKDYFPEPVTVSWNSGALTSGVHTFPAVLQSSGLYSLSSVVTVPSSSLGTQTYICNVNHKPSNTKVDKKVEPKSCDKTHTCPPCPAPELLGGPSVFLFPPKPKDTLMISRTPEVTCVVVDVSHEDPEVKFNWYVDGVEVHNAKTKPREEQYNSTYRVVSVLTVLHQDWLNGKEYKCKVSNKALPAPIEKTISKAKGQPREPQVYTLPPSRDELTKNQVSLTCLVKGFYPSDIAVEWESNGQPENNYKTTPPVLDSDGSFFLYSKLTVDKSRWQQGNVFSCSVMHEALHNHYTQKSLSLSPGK
Method: as §1, §2, §3, §4

I19R 2G12 = test: In vitro degradation assay with purified proteases, substrate I19R 2G12; assay type: biochemical; details: for cleavage sites in I19R 2G12 heavy chain (arrows): N-terminal sequencing and mass spectrometry; for cleavage / degradation of I19R 2G12 by purified protease: purified protease 10-100 μg/mL, pH 5.5
Chain of I19R 2G12 (as listed by the source, stated change not applied): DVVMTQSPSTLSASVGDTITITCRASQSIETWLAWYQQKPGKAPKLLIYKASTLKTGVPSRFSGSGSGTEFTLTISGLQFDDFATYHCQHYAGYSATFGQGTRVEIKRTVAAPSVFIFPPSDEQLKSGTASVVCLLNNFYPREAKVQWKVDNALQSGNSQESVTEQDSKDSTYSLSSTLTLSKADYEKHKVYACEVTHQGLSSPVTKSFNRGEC
Chain of I19R 2G12 (as listed by the source, stated change not applied): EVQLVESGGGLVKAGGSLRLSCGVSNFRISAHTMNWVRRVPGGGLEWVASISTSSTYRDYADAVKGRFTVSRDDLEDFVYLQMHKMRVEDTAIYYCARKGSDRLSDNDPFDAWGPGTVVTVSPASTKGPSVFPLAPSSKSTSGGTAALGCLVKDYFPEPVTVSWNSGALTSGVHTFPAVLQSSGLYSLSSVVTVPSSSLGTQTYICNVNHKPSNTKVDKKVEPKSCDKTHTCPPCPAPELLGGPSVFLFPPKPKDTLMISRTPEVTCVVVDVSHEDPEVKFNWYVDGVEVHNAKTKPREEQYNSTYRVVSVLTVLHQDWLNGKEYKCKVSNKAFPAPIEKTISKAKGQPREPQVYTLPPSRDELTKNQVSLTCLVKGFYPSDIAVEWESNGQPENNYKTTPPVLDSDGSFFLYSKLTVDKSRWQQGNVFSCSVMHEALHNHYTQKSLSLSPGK
Method: as §1, §2
For isolation of mAb degradation products, antibodies ([…]) were digested with apoplastic fluid or purified subtilisin-like serine proteases in 500 μL 100 mM sodium acetate (pH 5.5) to completion. After addition of 10 μL settled rProtein A Sepharose 4 Fast Flow beads, the samples were incubated for 2 h at 4° C. under constant agitation. The beads were then collected by centrifugation, washed four times with 500 μL PBS prior to elution of the bound antibody fragments with 100 μL 100 mM glycine (pH 3.0). The eluate was immediately neutralized with 10 μL 1 M Tris/HCl (pH 8.0). This elution/neutralization cycle was repeated four times. All eluate fractions were combined and concentrated by ultrafiltration after buffer exchange into PBS containing 0.02% (v/v) NaN3.
Samples were fractionated by 12.5% SDS-PAGE under reducing conditions and then blotted on nitrocellulose membranes (GE […]).
as §4, with “(2014):493-500). Alternatively, antibodies or their degradation products were digested with PNGase F (ROCHE) to release their N-glycans, reduced with 10 mM DTE (1 h, 56° C.) and then fractionated on a THERMO PROSWIFT RP-4H column (250×0.20 mm) using a Dionex UltiMate 3000 HPLC system (THERMO […]).” for “(2014):493-500).”

Molecule | cleavage / degradation of 2F5 by purified protease (monoclonal antibody 2F5) | cleavage / degradation of PG9 by purified protease (PG9) | cleavage sites in I19R 2G12 heavy chain (arrows) (I19R 2G12) | cleavage / degradation of I19R 2G12 by purified protease (I19R 2G12) | also measured
2G12: neutralizing anti-HIV antibody, heavy chain SEQ ID No. 24, light chain SEQ ID No. 28 |  |  |  |  | antigen-binding activity of cleaved vs intact antibody (ELISA) (HIV-1 UG37 gp140): severely reduced binding; also recorded: much lower antigen-binding activity
trypsin [reference compound] | did not display cleavage activity; also recorded: cannot cleave |  |  |  | 
B1 |  |  |  |  | binding affinity to / inhibition of SBT1 (SBT1 (SEQ ID No. 2)): high affinities; binding affinity to / inhibition of SBT2 (SBT2 (SEQ ID No. 14)): high affinities
B2 | did not display cleavage activity; also recorded: cannot cleave |  |  |  | 
B3 | degrade; also recorded: can cleave the heavy chains | degrade; also recorded: can cleave the heavy chains | ↓TV and TV↓VT | degrade; also recorded: can cleave the heavy chains | cleavage sites in PG9 heavy chain (arrows) (PG9; N-terminal sequencing and mass spectrometry): DGYYNYHYM↓[…]
B4 |  | capable of acting on; also recorded: can cleave the heavy chains | SD↓RL | capable of acting on; also recorded: can cleave the heavy chains | 

Source: patent US12553059B2, “Plant serine proteases” (priority 2018, dated 2026)
